According to patent US20190144541A1 (BEIJING DONGFANG BIOTECH, published 2019):
Numbering of substitutions follows the chain as printed.

B1: DFPD1-9 full-length anti-PD-1 monoclonal antibody (antibody, human IgG4 S228P, kappa, V domains shown)
VH: QVQLVESGGGVVQPGRSLRLDCKASGITFSNYGMHWVRQAPGKGLEWVAVIWYDSSRKYYADSVKGRFTISRDNSKNTLFLQMNSLRAEDTAVYYCATNNDYWGQGTLVTVSS
VL: DIQMTQSPSSLSASVGDRVTITCRASQSIHNYLDWYQQKPGKAPKLLIYNASTRATGVPSRFSGSGSGTDFTLTISSLQPEDFATYYCQQELHLPLTFGQGTKVEIKR
notes: Expressed in HEK293E cells and purified on protein A
B2: DFPD1-10 full-length anti-PD-1 monoclonal antibody (antibody, human IgG4 S228P, kappa, V domains shown)
VH: B1 VH
VL: B1 VL with I29V, H30S, N50D, E91N, L92M, H93Q
notes: as for B1
B3: DFPD1-13 full-length anti-PD-1 monoclonal antibody (antibody, human IgG4 S228P, kappa, V domains shown)
VH: B1 VH with Y32N
VL: B1 VL with I29V, H30S, N50D, E91N, L92M, H93Q
notes: as for B1
B4: DFPD1-11 full-length anti-PD-1 monoclonal antibody (antibody, human IgG4 S228P, kappa, V domains shown)
VH: B1 VH with Y32N
VL: B1 VL
notes: as for B1
B5: DFPD1-12 full-length anti-PD-1 monoclonal antibody (antibody, human IgG4 S228P, kappa, V domains shown)
VH: B1 VH with S55G, R57K
VL: B1 VL
notes: as for B1

Legend:
PD-1 on PD1-CHO cells = target: T1, PD-1 on PD1-CHO cells; experiment: cell ELISA on fixed PD1-CHO cells, anti-human Fc-HRP
T1 construct: also called cell-surface PD-1
Procedure: Firstly, the CHO cell line with stable PD-1 over-expression was made and named PD1-CHO. After coating 96-well plates with gelatin, PD1-CHO cells was digested by trypsin and then stopped. After centrifuging and suspending these cells, the cells were diluted to 2×10⁵ cells/mL, 100 μL per well in 96-well plates, totally 12 well×6 row, namely 2×10⁴ cells/well, and cultured at 5% CO₂, 37° C. overnight. The culture medium were discarded the next day, and the wells were washed one time with 350 μL precooling PBS. Freshly prepared 2% PFA was added to fix 5 minutes, and then PBS was used to wash two times.
The full-length anti-PD-1 antibody of double dilution was added into the cell plates, the diluent is PBS with 0.5% BSA. Sample concentration started from 100 μg/mL, diluting for 8 times, totally 12 gradients of dilution. After incubating for 30 minutes at room temperature, supernatant was discarded, and wells were washed three times with 350 μL pre-cooled PBS. The anti-human Fc-HRP Secondary antibodies diluted at 1:5000 were added, and incubated for 15 minutes at room temperature. After washing three times with 350 μL PBS, 100 μL TMB stain solution was added into each well, staining for 15 to 30 minutes at room temperature. After adding 50 μL2 mol/L H2504 per well to stop the staining, the optical density was read at 450 nm and 630 nm wavelength with the microplate reader.

PD-1-His [1] = target: T2, PD-1-His (UniProt Q15116 25-167, limits assumed); experiment: ELISA on coated PD-1-His (60 ng/well), anti-human Fc-HRP
T2 construct: also called antigen PD-1-His; not shown: His tag
Procedure: After washing five times with 300 μl/well PBST, the wells were blocked for two hours with 1% BSA-PBS at 37° C. Different dilution of the antibodies DFPD1-9, DFPD1-10, DFPD1-11, DFPD1-12 and DFPD1-13 were added. The highest concentration of these five kinds of antibodies is 16 μg/mL, diluted for 4 times to 11 gradients, and the last well was used as the negative control which was added PBS diluent only. After incubating at 37° C. for one hour, the wells were washed five times with 300 μL/well of PBST, then adding the anti-human Fc-HRP secondary antibodies diluted at 1:40000 with 1% BSA-PBS, incubating at 37° C. for one hour. After staining with TMB stain solution kit, 100 μL/well, for 8 minutes at room temperature, the reaction was stopped with 50 µL of 2 mol/L H₂SO₄/well, and the optical density was determined at 450 nm and 630 nm wavelength.

[2] = target: T3, PD-1 (analyte in the BIAcore X100 assay) (UniProt Q15116 25-167, limits assumed); experiment: SPR, BIAcore X100, antibody captured by anti-human IgG on CM5 chip, PD-1 as analyte
T3 construct: also called Programmed Cell Death 1
Procedure: The affinity of the antibodies were determined by ligand-capture method. Anti-human IgG was coupled to the surface of CM5 chip, and DFPD1-9, DFPD1-10, DFPD1-11, DFPD1-12 and DFPD1-13 were diluted respectively to ensure the capturing about 300 RU of the antibody by the anti-human IgG.

PD-1-His [3] = target: T2, PD-1-His; experiment: competition ELISA: antibody premixed with 4 ug/mL PD1-His, added to coated PDL1-Fc, bound PD1-His detected with anti-His-HRP
Procedure: PDL1-Fc in pH9.6 carbonate buffer solution was used for coating plates at 4° C. for overnight. After washing five times with PBST, the wells were blocked for two hours with 1% BSA-PBS at 37° C. […] After incubating at 37° C. for one hour, the wells were washed five times with PBST, and then the mouse anti-His antibody HRP labeled with 1% BSA-PBS diluted were added. After incubating at 37° C. for one hour, the wells were stained with TMB stain solution kit, 100 μL/well, for 8 minutes at room temperature. The reaction was stopped with 50 µL of 10% H₂SO₄/well. The optical density was read at 450 nm and 630 nm wavelength. The result is shown in FIG. 16, DFPD1-9, DFPD1-10, DFPD1-11, DFPD1-12 and DFPD1-13 can inhibit the binding of PD-1 and PD-L1.

T3 sequence (Q15116 25-167 limits assumed): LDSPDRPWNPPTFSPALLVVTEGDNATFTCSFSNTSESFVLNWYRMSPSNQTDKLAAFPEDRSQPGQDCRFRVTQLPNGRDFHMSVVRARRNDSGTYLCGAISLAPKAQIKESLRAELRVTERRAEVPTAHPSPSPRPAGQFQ
T2 sequence (Q15116 25-167 limits assumed): as above
T1 sequence (chain, as listed by the source limits assumed): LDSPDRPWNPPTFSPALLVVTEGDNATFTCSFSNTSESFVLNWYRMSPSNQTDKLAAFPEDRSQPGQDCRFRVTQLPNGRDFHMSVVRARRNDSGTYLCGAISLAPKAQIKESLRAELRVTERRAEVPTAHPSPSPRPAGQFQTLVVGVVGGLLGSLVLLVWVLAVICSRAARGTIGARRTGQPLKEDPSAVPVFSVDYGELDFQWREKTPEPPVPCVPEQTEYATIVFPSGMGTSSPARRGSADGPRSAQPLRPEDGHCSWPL

Binder | EC50 (read off the curve) (PD-1 on PD1-CHO cells) [nM] | EC50 (read off the curve) (PD-1-His [1]) [ng/mL] | Kd [2] [nM] | koff [2] [s⁻¹] | kon [2] [M⁻¹ s⁻¹] | IC50 (read off the curve) (PD-1-His [3]) [ng/mL]
B1 | ~2 | ~6 | 6.43 | 0.000105 | 16300 | ~100
B2 | ~0.9 | ~7 | 3.96 | 0.00013 | 32800 | ~100
B3 | ~2 | ~8 | 9.5 | 0.000108 | 18100 | ~80
B4 | ~4 | ~6 | 10.8 | 0.000102 | 9360 | ~70
B5 | ~2 | ~6 | 22.4 | 0.000298 | 13300 | ~50
